The test addresses canine IL-4RA (construct not given) (canine). Kind of test: SPR, combinatorial Fab-SASA clone.

Where a chain is given by its changes, count along the chain named.

B1: AHF21184 (Fab, V domains shown, not shown: small tags and cut ends)
VH: EVQLVESGGDLVKPGGSLRLSCVASGFTFRDYAMTWVRQAPGKGLQWVSLISGSGGKTYYADAVKGRFTISRDNAKNTLYLQMNSLRAEDTAVYYCAVDRLTKTIRPQYYGLWHWGQGTLVTVSS
VL: DIVMTQTPLSLSVSPGETASISCRSSQSLLYSIGYNYLDWYLQKPGQSPQGLIYLGSKRASGVPDRFSGSGSGTDFTLRISRVEANDTGVYYCMQGLQSPLSFGQGTKLEIKR
On to B1, for which the Kd stood at 1.89 nM, the koff amounted to 0.000543 s⁻¹ and the kon came out at 287000 M⁻¹ s⁻¹.

B2: AHF21195 (Fab, V domains shown, not shown: small tags and cut ends)
VH: B1 VH with S52N, L101K, H114V
VL: B1 VL
In the case of B2, the dissociation constant Kd was 0.992 nM, the dissociation rate constant (koff) came to 0.000192 s⁻¹ and the kon was 193000 M⁻¹ s⁻¹.

B3: AHF21186 (Fab, V domains shown, not shown: small tags and cut ends)
VH: B1 VH with S52N
VL: B1 VL with S57H, S102T
For B3, the Kd was 0.485 nM, the koff amounted to 0.000148 s⁻¹ and the kon was determined as 306000 M⁻¹ s⁻¹.

B4: AHF21200 (Fab, V domains shown, not shown: small tags and cut ends)
VH: B1 VH with S52N, L101K, H114V
VL: B1 VL with L30T, G96P
Regarding B4, the Kd came to 0.875 nM, the off-rate constant (koff) stood at 0.000127 s⁻¹ and the kon came to 146000 M⁻¹ s⁻¹.

B5: AHF21187 (Fab, V domains shown, not shown: small tags and cut ends)
VH: B1 VH with S52N, L101K, H114V
VL: B1 VL with L30T, S57H, S102G
In the case of B5, the Kd amounted to 0.769 nM, the koff amounted to 0.000132 s⁻¹ and the kon is 172000 M⁻¹ s⁻¹.

B6: AHF21191 (Fab, V domains shown, not shown: small tags and cut ends)
VH: B1 VH with S52N
VL: B1 VL with L30T, S102G
On to B6, for which the dissociation constant (Kd) was 0.366 nM, the dissociation rate constant (koff) amounted to 9.48e-05 s⁻¹ and the kon is 259000 M⁻¹ s⁻¹.

B7: AHF21201 (Fab, V domains shown, not shown: small tags and cut ends)
VH: B1 VH with S52N
VL: B1 VL with S57H, S102G
With B7, the dissociation constant (Kd) came to 0.44 nM, the koff was determined as 0.000151 s⁻¹ and the kon is 344000 M⁻¹ s⁻¹.

B8: AHF21194 (Fab, V domains shown, not shown: small tags and cut ends)
VH: B1 VH with S52N, H114V
VL: B1 VL
With B8, the dissociation constant (Kd) is 0.627 nM, the koff amounted to 0.000133 s⁻¹ and the association rate constant (kon) is 212000 M⁻¹ s⁻¹.

B9: AHF21188 (Fab, V domains shown, not shown: small tags and cut ends)
VH: B1 VH
VL: B1 VL with L30T, S102G
For the molecule B9, the equilibrium dissociation constant (Kd) came to 0.857 nM, the koff was 0.000278 s⁻¹ and the kon turned out to be 325000 M⁻¹ s⁻¹.

B10: AHF21199 (Fab, V domains shown, not shown: small tags and cut ends)
VH: B1 VH with S52N, H114V
VL: B1 VL with L30T, S57H, S102G
Regarding B10, the dissociation constant Kd worked out at 0.395 nM, the koff amounted to 8.18e-05 s⁻¹ and the kon was found to be 207000 M⁻¹ s⁻¹.

B11: AHF21190 (Fab, V domains shown, not shown: small tags and cut ends)
VH: B1 VH with S52N, H114V
VL: B1 VL with S57H
With B11, the Kd came to 0.68 nM, the koff worked out at 0.000152 s⁻¹ and the association rate constant (kon) came to 223000 M⁻¹ s⁻¹.

These data come from patent US20250188176A1.
